Measurements taken from the Human Domainome abundance scans (Beltran et al. 2025).
± gives the uncertainty stated by the source.

Assay: abundance fitness (aPCA) (normalised: wild type 0, dead -1); higher = more abundant; growth selection in yeast, the domain comes from the species named
Conditions: Homo sapiens

**Q.** With “Scaffold attachment factor B1 E76Q, Q15424” as the substance, how does the abundance fitness read?
**A.** Its abundance fitness is -0.415 ± 0.088.

**Q.** Which abundance fitness does the source give for “Scaffold attachment factor B1 E76R, Q15424” here?
**A.** Its abundance fitness is -0.055 ± 0.054.

**Q.** For “Scaffold attachment factor B1 E76T, Q15424”, which abundance fitness is on record?
**A.** The abundance fitness was -0.195 ± 0.073.

**Q.** Which abundance fitness does the source give for “Scaffold attachment factor B1 E76V, Q15424” here?
**A.** The abundance fitness was -0.044 ± 0.049.

**Q.** With “Scaffold attachment factor B1 E76W, Q15424” as the substance, how does the abundance fitness read?
**A.** The abundance fitness was -0.305 ± 0.07.

**Q.** Which abundance fitness does the source give for “Scaffold attachment factor B1 E76Y, Q15424” here?
**A.** The abundance fitness was -0.175 ± 0.056.

**Q.** For “Scaffold attachment factor B1 E80A, Q15424”, which abundance fitness is on record?
**A.** The abundance fitness was -0.055 ± 0.051.

**Q.** Which abundance fitness does the source give for “Scaffold attachment factor B1 E80D, Q15424” here?
**A.** Its abundance fitness is -0.323 ± 0.14.

**Q.** For “Scaffold attachment factor B1 E80G, Q15424”, which abundance fitness is on record?
**A.** The abundance fitness was -0.151 ± 0.085.

**Q.** Which abundance fitness does the source give for “Scaffold attachment factor B1 E80K, Q15424” here?
**A.** The abundance fitness was -0.889 ± 0.25.

**Q.** With “Scaffold attachment factor B1 E80M, Q15424” as the substance, how does the abundance fitness read?
**A.** Its abundance fitness is -0.361 ± 0.19.

**Q.** With “Scaffold attachment factor B1 E80N, Q15424” as the substance, how does the abundance fitness read?
**A.** Its abundance fitness is -0.513 ± 0.43.

**Q.** For “Scaffold attachment factor B1 E80Q, Q15424”, which abundance fitness is on record?
**A.** Its abundance fitness is -0.274 ± 0.1.

**Q.** Which abundance fitness does the source give for “Scaffold attachment factor B1 E80R, Q15424” here?
**A.** Its abundance fitness is -0.443 ± 0.092.

**Q.** For “Scaffold attachment factor B1 E80T, Q15424”, which abundance fitness is on record?
**A.** The abundance fitness was -0.675 ± 0.2.

**Q.** For “Scaffold attachment factor B1 E80V, Q15424”, which abundance fitness is on record?
**A.** Its abundance fitness is -0.223 ± 0.059.

**Q.** Which abundance fitness does the source give for “Scaffold attachment factor B1 E80W, Q15424” here?
**A.** The abundance fitness was -0.409 ± 0.15.

**Q.** Which abundance fitness does the source give for “Scaffold attachment factor B1 G27A, Q15424” here?
**A.** The abundance fitness was -0.257 ± 0.061.

**Q.** With “Scaffold attachment factor B1 G27D, Q15424” as the substance, how does the abundance fitness read?
**A.** The abundance fitness was -0.027 ± 0.08.

**Q.** For “Scaffold attachment factor B1 G27E, Q15424”, which abundance fitness is on record?
**A.** Its abundance fitness is -0.068 ± 0.062.

**Q.** For “Scaffold attachment factor B1 G27F, Q15424”, which abundance fitness is on record?
**A.** The abundance fitness was -0.246 ± 0.12.

**Q.** Which abundance fitness does the source give for “Scaffold attachment factor B1 G27H, Q15424” here?
**A.** The abundance fitness was -0.692 ± 0.14.

**Q.** For “Scaffold attachment factor B1 G27I, Q15424”, which abundance fitness is on record?
**A.** Its abundance fitness is -0.03 ± 0.079.

**Q.** With “Scaffold attachment factor B1 G27K, Q15424” as the substance, how does the abundance fitness read?
**A.** The abundance fitness was -0.204 ± 0.1.

**Q.** With “Scaffold attachment factor B1 G27L, Q15424” as the substance, how does the abundance fitness read?
**A.** Its abundance fitness is -0.191 ± 0.057.

**Q.** With “Scaffold attachment factor B1 G27M, Q15424” as the substance, how does the abundance fitness read?
**A.** Its abundance fitness is -0.09 ± 0.11.

**Q.** Which abundance fitness does the source give for “Scaffold attachment factor B1 G27N, Q15424” here?
**A.** The abundance fitness was -0.187 ± 0.12.

**Q.** For “Scaffold attachment factor B1 G27P, Q15424”, which abundance fitness is on record?
**A.** Its abundance fitness is -0.519 ± 0.11.

**Q.** With “Scaffold attachment factor B1 G27Q, Q15424” as the substance, how does the abundance fitness read?
**A.** Its abundance fitness is -0.334 ± 0.08.

**Q.** With “Scaffold attachment factor B1 G27R, Q15424” as the substance, how does the abundance fitness read?
**A.** Its abundance fitness is -0.327 ± 0.052.

**Q.** For “Scaffold attachment factor B1 G27S, Q15424”, which abundance fitness is on record?
**A.** The abundance fitness was -0.092 ± 0.07.

**Q.** Which abundance fitness does the source give for “Scaffold attachment factor B1 G27V, Q15424” here?
**A.** Its abundance fitness is -0.1 ± 0.048.

**Q.** Which abundance fitness does the source give for “Scaffold attachment factor B1 G27W, Q15424” here?
**A.** The abundance fitness was -0.559 ± 0.057.

**Q.** With “Scaffold attachment factor B1 G27Y, Q15424” as the substance, how does the abundance fitness read?
**A.** Its abundance fitness is -0.088 ± 0.12.

**Q.** Which abundance fitness does the source give for “Scaffold attachment factor B1 G52A, Q15424” here?
**A.** The abundance fitness was -0.538 ± 0.069.

**Q.** With “Scaffold attachment factor B1 G52C, Q15424” as the substance, how does the abundance fitness read?
**A.** The abundance fitness was -0.931 ± 0.082.

**Q.** Which abundance fitness does the source give for “Scaffold attachment factor B1 G52D, Q15424” here?
**A.** The abundance fitness was -0.691 ± 0.084.

**Q.** Which abundance fitness does the source give for “Scaffold attachment factor B1 G52E, Q15424” here?
**A.** The abundance fitness was -0.727 ± 0.079.

**Q.** Which abundance fitness does the source give for “Scaffold attachment factor B1 G52F, Q15424” here?
**A.** Its abundance fitness is -1.25 ± 0.11.

**Q.** For “Scaffold attachment factor B1 G52H, Q15424”, which abundance fitness is on record?
**A.** Its abundance fitness is -1.02 ± 0.15.

**Q.** Which abundance fitness does the source give for “Scaffold attachment factor B1 G52I, Q15424” here?
**A.** The abundance fitness was -1.72 ± 0.32.

**Q.** For “Scaffold attachment factor B1 G52K, Q15424”, which abundance fitness is on record?
**A.** Its abundance fitness is -1.35 ± 0.18.

**Q.** Which abundance fitness does the source give for “Scaffold attachment factor B1 G52L, Q15424” here?
**A.** The abundance fitness was -1.34 ± 0.086.

**Q.** For “Scaffold attachment factor B1 G52M, Q15424”, which abundance fitness is on record?
**A.** The abundance fitness was -1.21 ± 0.077.

**Q.** With “Scaffold attachment factor B1 G52N, Q15424” as the substance, how does the abundance fitness read?
**A.** Its abundance fitness is -1.45 ± 0.23.

**Q.** For “Scaffold attachment factor B1 G52P, Q15424”, which abundance fitness is on record?
**A.** The abundance fitness was -0.916 ± 0.079.

**Q.** Which abundance fitness does the source give for “Scaffold attachment factor B1 G52Q, Q15424” here?
**A.** The abundance fitness was -0.781 ± 0.066.

**Q.** Which abundance fitness does the source give for “Scaffold attachment factor B1 G52R, Q15424” here?
**A.** The abundance fitness was -1.18 ± 0.054.

**Q.** With “Scaffold attachment factor B1 G52S, Q15424” as the substance, how does the abundance fitness read?
**A.** The abundance fitness was -0.786 ± 0.057.

**Q.** With “Scaffold attachment factor B1 G52T, Q15424” as the substance, how does the abundance fitness read?
**A.** Its abundance fitness is -0.939 ± 0.078.

**Q.** Which abundance fitness does the source give for “Scaffold attachment factor B1 G52V, Q15424” here?
**A.** Its abundance fitness is -0.978 ± 0.059.

**Q.** With “Scaffold attachment factor B1 G52W, Q15424” as the substance, how does the abundance fitness read?
**A.** Its abundance fitness is -1.2 ± 0.073.

**Q.** Which abundance fitness does the source give for “Scaffold attachment factor B1 G52Y, Q15424” here?
**A.** Its abundance fitness is -1.15 ± 0.11.

**Q.** With “Scaffold attachment factor B1 G69C, Q15424” as the substance, how does the abundance fitness read?
**A.** The abundance fitness was -0.431 ± 0.093.

**Q.** With “Scaffold attachment factor B1 G69D, Q15424” as the substance, how does the abundance fitness read?
**A.** Its abundance fitness is -0.422 ± 0.17.

**Q.** For “Scaffold attachment factor B1 G69E, Q15424”, which abundance fitness is on record?
**A.** The abundance fitness was -0.552 ± 0.086.

**Q.** With “Scaffold attachment factor B1 G69H, Q15424” as the substance, how does the abundance fitness read?
**A.** The abundance fitness was -0.292 ± 0.11.

**Q.** With “Scaffold attachment factor B1 G69I, Q15424” as the substance, how does the abundance fitness read?
**A.** The abundance fitness was -0.376 ± 0.084.

**Q.** For “Scaffold attachment factor B1 G69L, Q15424”, which abundance fitness is on record?
**A.** The abundance fitness was -0.558 ± 0.049.

**Q.** For “Scaffold attachment factor B1 G69M, Q15424”, which abundance fitness is on record?
**A.** Its abundance fitness is -0.463 ± 0.096.

**Q.** With “Scaffold attachment factor B1 G69N, Q15424” as the substance, how does the abundance fitness read?
**A.** The abundance fitness was -0.248 ± 0.099.

**Q.** For “Scaffold attachment factor B1 G69P, Q15424”, which abundance fitness is on record?
**A.** Its abundance fitness is -0.419 ± 0.083.

**Q.** Which abundance fitness does the source give for “Scaffold attachment factor B1 G69R, Q15424” here?
**A.** The abundance fitness was -0.25 ± 0.06.

**Q.** For “Scaffold attachment factor B1 G69S, Q15424”, which abundance fitness is on record?
**A.** Its abundance fitness is -0.397 ± 0.071.

**Q.** For “Scaffold attachment factor B1 G69T, Q15424”, which abundance fitness is on record?
**A.** The abundance fitness was -0.472 ± 0.077.

**Q.** Which abundance fitness does the source give for “Scaffold attachment factor B1 G69V, Q15424” here?
**A.** The abundance fitness was -0.454 ± 0.079.

**Q.** Which abundance fitness does the source give for “Scaffold attachment factor B1 G69W, Q15424” here?
**A.** Its abundance fitness is -0.658 ± 0.067.

**Q.** For “Scaffold attachment factor B1 G69Y, Q15424”, which abundance fitness is on record?
**A.** The abundance fitness was -0.819 ± 0.19.

**Q.** Which abundance fitness does the source give for “Scaffold attachment factor B1 G70A, Q15424” here?
**A.** The abundance fitness was -0.278 ± 0.061.

**Q.** With “Scaffold attachment factor B1 G70C, Q15424” as the substance, how does the abundance fitness read?
**A.** The abundance fitness was -0.259 ± 0.058.

**Q.** With “Scaffold attachment factor B1 G70D, Q15424” as the substance, how does the abundance fitness read?
**A.** Its abundance fitness is -0.354 ± 0.097.

**Q.** Which abundance fitness does the source give for “Scaffold attachment factor B1 G70E, Q15424” here?
**A.** Its abundance fitness is -0.244 ± 0.072.

**Q.** With “Scaffold attachment factor B1 G70F, Q15424” as the substance, how does the abundance fitness read?
**A.** Its abundance fitness is -0.406 ± 0.083.

**Q.** For “Scaffold attachment factor B1 G70H, Q15424”, which abundance fitness is on record?
**A.** Its abundance fitness is -0.467 ± 0.083.

**Q.** With “Scaffold attachment factor B1 G70K, Q15424” as the substance, how does the abundance fitness read?
**A.** Its abundance fitness is -0.207 ± 0.081.

**Q.** With “Scaffold attachment factor B1 G70L, Q15424” as the substance, how does the abundance fitness read?
**A.** Its abundance fitness is -0.22 ± 0.051.

**Q.** For “Scaffold attachment factor B1 G70M, Q15424”, which abundance fitness is on record?
**A.** The abundance fitness was -0.307 ± 0.064.

**Q.** With “Scaffold attachment factor B1 G70N, Q15424” as the substance, how does the abundance fitness read?
**A.** Its abundance fitness is -0.511 ± 0.13.

**Q.** With “Scaffold attachment factor B1 G70Q, Q15424” as the substance, how does the abundance fitness read?
**A.** The abundance fitness was -0.205 ± 0.068.
